Experiments:
[1] = target: Flrt1a ectodomain (zebrafish); assay: SPR; BIAcore, kinetic analysis; same surfaces; three concentrations of Unc5b-Cd4d3+4-6His, flow 100 μl/min, 10 Hz, global fit of first-order decay and of an association model; HBS-EP, 28°C; purification of the Flrt baits not stated
[2] = target: Flrt3 ectodomain (zebrafish); assay: as above
[3] = target: Flrt1b ectodomain (zebrafish); assay: as above
[4] = target: Flrt1a ectodomain (zebrafish); assay: SPR; BIAcore, equilibrium analysis; biotinylated Flrt-Cd4d3+4-bio baits (about 1000 RU) on a streptavidin-coated chip, Cd4d3+4-bio as reference; purified monomeric Unc5b-Cd4d3+4-6His injected; HBS-EP, 28°C; purification of the Flrt baits not stated
[5] = target: Flrt3 ectodomain (zebrafish); assay: as above
[6] = target: Flrt1b ectodomain (zebrafish); assay: as above

koff [1]: > 7 s⁻¹ | kon [1]: > 100000 M⁻¹ s⁻¹ | t1/2 [1]: < 0.1 s | kon [2]: > 100000 M⁻¹ s⁻¹ | koff [3]: 0.6 s⁻¹ | kon [3]: > 100000 M⁻¹ s⁻¹ | t1/2 [3]: 1.2 s | Kd [4]: > 50 µM | Kd [5]: 14 µM | Kd [6]: 4 µM
Substance: Unc5b-Cd4d3+4-6His (domain or fragment)

Source: paper PMC2768988
